assay: yeast display, Sf9 membrane polyspecificity reagent, FACS + sequencing; frameworks hold sequencing errors
In short: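 After 36–48 hours of galactose induction, yeast (Saccharomyces cerevisiae BJ5465) displaying a synthetic nanobody library were stained at 4 °C for 1 hour with 10% biotinylated, detergent-solubilized Sf9 membrane reagent. Streptavidin microbeads enriched the stained cells before FACS sorting into low and high (top ~1%) gates on anti-HA and streptavidin fluorescence. Each clone's polyreactivity label reflects its gate of origin.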

| Sequence | polyreactivity (PSR sort gate) |
| --- | --- |
| QVQLVESGGGLVQAGGSLRLSCAASGIIFGVYAMGWYRQAPGKERELVAAIDGNGSSTYYADSVKGRFTISRDNAKNSVYLQMNSLKPEDTAVYYCNKDVARYPYGKFDYWGQGTQVTVSS | low polyreactivity |
| QVQLVESGGGLVQAGGSLRLSCAASGIIFGVYAMGWYRQAPGKERELVAAISWTGGSTFYADSVKGRFTISRDNAKITVYLQMNILKPEDTAVYYCAVDYWSGITWVEYWGQGTQVTVSS | high polyreactivity |
| QVQLVESGGGLVQAGGSLRLSCAASGIIFGWYAMGWYRQAPGKERELVAAISSGGRTNYADSVKGRFTISRDNAKNTVYLQMNSLKPEDTEVYYCAAAYIRGSRRYDYCGQGTQVTVSS | high polyreactivity |
| QVQLVESGGGLVQAGGSLRLSCAASGIIFGWYAMGWYRQAPGTERELVADISSDDSTYYADSVKGRFTISRDNAKNTVYLQMNSLKPEDTAVYDCAAETEYYSYRFDYWGQGTQVTVSS | high polyreactivity |
| QVQLVESGGGLVQAGGSLRLSCAASGIIFGYNAMGWYRQAPGKERELVAAISYGGGRSYYADSVKGRFTISRDNAKNTVYFQMNSLKPEDTAVYYCAAQYFASRSYGYDYWGQGTQVTVSS | high polyreactivity |
| QVQLVESGGGLVQAGGSLRLSCAASGIIFGYYAMGGYRQAPGKERELVAAISSRGSRTYYADSVKGRFTISRDNAKNTVYLQMNSLKPEDTAVYYCAARHFARMGYWGQGTQVTVSS | high polyreactivity |
| QVQLVESGGGLVQAGGSLRLSCAASGIIFGYYAMGWYRQAPAKERELVAAISQSGGDTYYADSVKGRYTISRDLAKNTVYLQMNSVKPEDTAVYYCAASVWYYPMDYWGQGTHVTVSS | low polyreactivity |
| QVQLVESGGGLVQAGGSLRLSCAASGIIFGYYAMGWYRQAPGKERELVAAIDWTGGNTYYAVSVKGRFTISRDNAKNTVYLQMNSLKPEDTAVYYCAADYNSQEDYWGQGTQVTVSS | low polyreactivity |
| QVQLVESGGGLVQAGGSLRLSCAASGIIFGYYAMGWYRQAPGKERELVAAISGNGGSTYYADSVKGRFTLSRDNAKITVYLQMNSLKPEDTAVYYCAARRGYRYGPRYDYWGQGTQVTVSS | high polyreactivity |
| QVQLVESGGGLVQAGGSLRLSCAASGIIFGYYAMGWYRQAPGKERELVASIIWSGGSTYYADSVKGRFTISRDNAKNTVYLQMNSLKPEDTAVYYCAAYRYQEYDYWGQGTQVTVSS | high polyreactivity |
| QVQLVESGGGLVQAGGSLRLSCAASGIIFHGNAMGWYRQAPGKERELVAAIRWSGGSTYYADSVKGRFTISRDNAKNSVYLPMNSLKPEDTAVYYCNAGRSWRRTHYDYWGQGTQVTVSS | high polyreactivity |
| QVQLVESGGGLVQAGGSLRLSCAASGIIFIGYAMGWYRQAAGKERELVAAITRSGVSTYYADSVKGRFTISRDNAKNTVYLQMNSLKPEDTAVYYCAARYFGEKYSQGFDYWGQGTQVTVSS | low polyreactivity |
| QVQLVESGGGLVQAGGSLRLSCAASGIIFIHYAMGWYRQAPGKERELVAAITSGGSTNYADSVKGRFTISRDNAKNTVYLQMNSLKPEDTAVYYCNAEPVASYYRVSDYEYWGQGTQVTVSS | low polyreactivity |
| QVQLVESGGGLVQAGGSLRLSCAASGIIFIHYTMGWYRQAPGKERELVAAISWSGGSTYYADSVKGRFTISRDNAKNTVYLQMNSLKPEDTAVYYCAADYIFYHRMYYWGQGTQVTVSS | high polyreactivity |
| QVQLVESGGGLVQAGGSLRLSCAASGIIFIKYAMGWYRQAPGKERELVAGINVSSGGDTYADSVKGRFTISRDNAKNTVYLQMNSLKPEDTAVYYCNAGTGGPDYVFITEYDYWGQGTQVTVSS | low polyreactivity |
| QVQLVESGGGLVQAGGSLRLSCAASGIIFINYVMGWYRQAPGKERELVAAISIGGGRTYYADSVKGRFTISRDNAKNTVYLQMNSLKPEDTAVYYCAAEYFYGYKDVYDYWGQGTQVTVSS | high polyreactivity |

| Sequence | polyreactivity (PSR sort gate) |
| --- | --- |
| QVQLVESGGGLVQAGGSLRLSCAASGIIFIYNAMGWYRQAPGKERELVADIRRSGSTSYADSVKGRFTISRDNAKNTVYLQMNSLKPEDTAVYYCAADTSTWFGAYYLRDPYDYWGQGTQVTVSS | low polyreactivity |
| QVQLVESGGGLVQAGGSLRLSCAASGIIFKGYDMGWYRQAPGKERELVAAISSGSTNYADSVKGRFTISRDNAKNTVYLQMNSLKPEDTAVYYCAVRTYRYQSWGNYYLEYDYWGQGTQVTVSS | low polyreactivity |
| QVQLVESGGGLVQAGGSLRLSCAASGIIFKIYAMGWYRQAPGKARELVAAISWRGGSTYYADSVKGRFTISRDNAKNTVYLQMNSLKPEDTAVYYCAAARGYRTGYGYWGQGTQVTVSS | high polyreactivity |
| QVQLVESGGGLVQAGGSLRLSCAASGIIFKQYAMGWYRQAPGKERELVAAITGSGGRTTYADSVKGRFTISRDNAMNTVYLQMNSLKPEDTAVYFCAAVGLSGWRDGYWGQGTQVTVSS | high polyreactivity |
| QVQLVESGGGLVQAGGSLRLSCAASGIIFKRNAMGWYRQAPGKERELVAAITYRGTSTYYADSVKGRFTISRDNAKNTVYLQMNSLKPEDTAVYYCNAVGRSSGSAFNYWGQGTQVTVSS | high polyreactivity |
| QVQLVESGGGLVQAGGSLRLSCAASGIIFKRYVMGWYRQAPGKDRQLVAGISWSGVSTFYADSVKGRFTISRDNAKNTVYLQMNSLKPEDTAVYYCAADRARYYYQAYGAYGYWGQGTQVTVSS | high polyreactivity |
| QVQLVESGGGLVQAGGSLRLSCAASGIIFKSYVMGWYRQAPGKEREFVARITYRGGSTYYADSVKGRFTISRDNAKNTVYLQMNSLKPEDTAVYYCNKKNPQDLTENGYWGQGTQVTVSS | high polyreactivity |
| QVQLVESGGGLVQAGGSLRLSCAASGIIFKTYAMGWYRQAPGKERELVAGIDYSGGGTSYADSVKGRFTISRDNAKNTVYLQMNSLKPEDTAVYYCAADAYSGAYFTYLGEIYDYWGQGTQVTVSS | low polyreactivity |
| QVQLVESGGGLVQAGGSLRLSCAASGIIFKTYTMGWYRTAPGKERELVAAITFSGGSTYYADSVKGRFTISRDNAKNTVYLQMNSLKPEDTAVYYCADTHRFWWYSDDYWGQGTQVTVSS | high polyreactivity |
| QVQLVESGGGLVQAGGSLRLSCAASGIIFKVYAMGWYRQAPGKERELVAAISKSGGSTYYADSVKGRFTISRDNAKNTVYLQMNSLNPEDTAVYYCAARDYARYASYYYWGQGTQVTVSS | high polyreactivity |
| QVQLVESGGGLVQAGGSLRLSCAASGIIFLDNAMGWYRQAPGKERELVAAITTGGITYYADSVKGRFTISRDNAKNTVYLQMNSLKPEDTAVYYCAADNEWPRYDYWGQGTQVTVSS | low polyreactivity |
| QVQLVESGGGLVQAGGSLRLSCAASGIIFLDYVMGWYRQAPGKERELVAAINSGGSTYYADSVKGRFTISRANAKNNVYLQMNSLKPEDSAVYYCNAVFYDDWQIYDYWGQGTQVTVSS | low polyreactivity |
| QVQLVESGGGLVQAGGSLRLSCAASGIIFLKNAMGWYRQAPGKERELVAAITVSGARTYYADSVKGRFTISRDNAKNTVYLQMNSLKPEDTAVYYCATDRSYQRYNYWGQGTQVTVSS | high polyreactivity |
| QVQLVESGGGLVQAGGSLRLSCAASGIIFLKYAMGWYRQAPGKERELVAGISVRGGRTYYADSVKGRFTISRDNAKNTVYLQMNSLKPEDTAVYYCAKERSRYYPYDYWGQGTQVTVSS | high polyreactivity |
| QVQLVESGGGLVQAGGSLRLSCAASGIIFLNNAMGCYRQAPGKERELVAAITRTSTSTYYADSVKGRFTISRDNAKNTVYLQMNSLKPEDTAVYYSLVYWGQGTQVTVSS | low polyreactivity |
| QVQLVESGGGLVQAGGSLRLSCAASGIIFLQYAMGWYRQAPGKERELVAAITRRGDRTYYADSVKGRFTISRDNAKNTVYLQMNSLKPEDTAVYYCAASYWYRDYYYWGQGTQVTVSS | high polyreactivity |

— the nanobody polyreactivity screen of Harvey et al. (2022)
